Data on 62 molecules can be found in patent US20260274955A1 (JANUX THERAPEUTICS, published 2026).

The target of the first assay is T1, Anti-CD28 Fab (SEQ ID NOs: 202, 203).
T1 construct: biotinylated and captured on neutravidin coated plates in the phage ELISA
Description: phage binding ELISA, Fab on plate.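 Also: clonal phage supernatant ELISA, wells preincubated with CD28 antigen or blocking buffer only, then bound phage detected using HRP-linked anti-M13 antibody.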
T1 sequence (VH, as listed by the source, chain 1 of 2): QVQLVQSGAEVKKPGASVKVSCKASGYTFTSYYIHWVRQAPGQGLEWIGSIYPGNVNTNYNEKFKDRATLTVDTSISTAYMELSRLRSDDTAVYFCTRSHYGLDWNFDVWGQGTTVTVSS
T1 sequence (VL, as listed by the source, chain 2 of 2): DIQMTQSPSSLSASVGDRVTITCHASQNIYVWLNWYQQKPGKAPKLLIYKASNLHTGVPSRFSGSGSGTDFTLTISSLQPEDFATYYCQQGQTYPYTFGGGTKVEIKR
Description: After panning, phage infected bacteria were plated out and colonies picked into 96 well blocks. Clonal phage was then amplified and separated from bacterial cells via centrifugation.
Clonal phage were harvested as crude supernatants and screened via standard ELISAs. […] Prior to the addition of clonal phage, wells were incubated with blocking buffer and CD28 antigen or blocking buffer alone. Without washing or aspirating, clonal phage supernatants were then added to the wells and incubated for a short time. Wells were then washed followed by detection of bound phage using a horse radish conjugated anti-M13 antibody. Clonal phage of interest were then sent for sequence analysis.
Consider TCAAGAHYAWPECF [Phage-1040], for which the “Anti-CD28 Fab (SEQ ID NOs: 202, 203) signal” value stood at 1.72. As to WCAAVFSYSWPLCL [Phage-1032], the “Anti-CD28 Fab (SEQ ID NOs: 202, 203) signal” value is 1.75.

Turning to DCWGDAPYPWRVCL [Phage-1059], the “Anti-CD28 Fab (SEQ ID NOs: 202, 203) signal” value was 1.64. Same read-out and setting: as for TCAAGATYEWPYCF [Phage-980], the figure is 1.96. On the same count and under the same terms, as for MCTAGALYNWPTCL [Phage-1019], the figure is 1.78; as for TCAAGASFPWPWCL [Phage-1029], 1.75. As for TCAAGAVWGWPLCF [Phage-1039], the “Anti-CD28 Fab (SEQ ID NOs: 202, 203) signal” value is 1.73.

As to LCSAGATYPWPWCM [Phage-1058], the “Anti-CD28 Fab (SEQ ID NOs: 202, 203) signal” value came to 1.64. Consider TCAAGANYPWPLCL [Phage-1027], for which the “Anti-CD28 Fab (SEQ ID NOs: 202, 203) signal” value turned out to be 1.75. Regarding GCAAGANYPWPLCL [Phage-1069], the “Anti-CD28 Fab (SEQ ID NOs: 202, 203) signal” value was determined as 1.59.

Consider SCAAGASYPWPQCL [Phage-1023], for which the “Anti-CD28 Fab (SEQ ID NOs: 202, 203) signal” value came to 1.77. For the molecule LCKPGVPYQWPTCL [Phage-1018], the “Anti-CD28 Fab (SEQ ID NOs: 202, 203) signal” value amounted to 1.78. For MCSAGATYPWPMCL [Phage-1037], the “Anti-CD28 Fab (SEQ ID NOs: 202, 203) signal” value came to 1.73. Turning to MCSAGATYPWPYCL [Phage-1057], the “Anti-CD28 Fab (SEQ ID NOs: 202, 203) signal” value came to 1.64. With SCSAGFHYPWPICL [Phage-1017], the “Anti-CD28 Fab (SEQ ID NOs: 202, 203) signal” value worked out at 1.79. Turning to SCAAGASYSWPACF [Phage-1016], the “Anti-CD28 Fab (SEQ ID NOs: 202, 203) signal” value came to 1.79.

Take WCAAVFSYTWSPCL [Phage-981]: the “Anti-CD28 Fab (SEQ ID NOs: 202, 203) signal” value was 1.96.

In the case of LCEEFFHYSWPVCL [Phage-1034], the “Anti-CD28 Fab (SEQ ID NOs: 202, 203) signal” value worked out at 1.74.

With TCSAGAMYPWPWCV [Phage-1031], the “Anti-CD28 Fab (SEQ ID NOs: 202, 203) signal” value was determined as 1.75. Still for that read-out and setting: as for WCTAGFSYKLSICL [Phage-1060], the figure is 1.63; as for TCAAGAHYPWPYCL [Phage-1020], 1.77. As to YCSAGAQWPWPICL [Phage-1014], the “Anti-CD28 Fab (SEQ ID NOs: 202, 203) signal” value was 1.79. With WCAAGATWPWPLCI [Phage-1042], the “Anti-CD28 Fab (SEQ ID NOs: 202, 203) signal” value came out at 1.7. With WCAEFFNYHWPLCF [Phage-1021], the “Anti-CD28 Fab (SEQ ID NOs: 202, 203) signal” value is 1.77.

PCAAGAMWPWPVCL [Phage-986]: the “Anti-CD28 Fab (SEQ ID NOs: 202, 203) signal” value is 1.95.

As to LCTAGLAYNWPTCL [Phage-1024], the “Anti-CD28 Fab (SEQ ID NOs: 202, 203) signal” value amounted to 1.77. Regarding TCAAGASYQWPLCF [Phage-1015], the “Anti-CD28 Fab (SEQ ID NOs: 202, 203) signal” value came to 1.79. As to TCSAGANYEWPWCF [Phage-1062], the “Anti-CD28 Fab (SEQ ID NOs: 202, 203) signal” value is 1.62. Take TCSAGFSLQLSICL [Phage-1022]: the “Anti-CD28 Fab (SEQ ID NOs: 202, 203) signal” value was 1.77. Turning to TCAAGAAWPWPHCL [Phage-1035], the “Anti-CD28 Fab (SEQ ID NOs: 202, 203) signal” value was 1.73.

On to SCAAVFPYPWPPCF [Phage-1030], for which the “Anti-CD28 Fab (SEQ ID NOs: 202, 203) signal” value is 1.75. On to TCAAGAAYTWPACF [Phage-982], for which the “Anti-CD28 Fab (SEQ ID NOs: 202, 203) signal” value is 1.96. For the molecule LCSAGAMYQWPTCL [Phage-1061], the “Anti-CD28 Fab (SEQ ID NOs: 202, 203) signal” value stood at 1.63. In the case of LCSAGAMWQWPTCL [Phage-1097], the “Anti-CD28 Fab (SEQ ID NOs: 202, 203) signal” value was 1.51. Same read-out and setting: as for TCAAGATYEWPTCL [Phage-983], the figure is 1.96; as for RCRAGFSYNWPYCM [Phage-1041], 1.72; as for MCAAGAMYAWPTCL [Phage-1028], 1.75.

For GCAAGFHYPWPLCL [Phage-1033], the “Anti-CD28 Fab (SEQ ID NOs: 202, 203) signal” value is 1.74. On to TCAAGAVWEWPMCF [Phage-1026], for which the “Anti-CD28 Fab (SEQ ID NOs: 202, 203) signal” value turned out to be 1.76.

Regarding GCAAGAHYPWPFCL [Phage-1025], the “Anti-CD28 Fab (SEQ ID NOs: 202, 203) signal” value stood at 1.76. As for TCAAGATYPWPSCL [Phage-1038], the “Anti-CD28 Fab (SEQ ID NOs: 202, 203) signal” value worked out at 1.73. Regarding TCAAGATWPWPSCL [Phage-1065], the “Anti-CD28 Fab (SEQ ID NOs: 202, 203) signal” value worked out at 1.61.

The target in another assay is Anti-CD28 Fab (SEQ ID NOs: 202, 203). Nature of the assay: phage binding ELISA on captured Fab.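 Also: clonal phage supernatants added briefly to wells pre-incubated with CD28 antigen or with blocking buffer only, then washed, bound phage read by ELISA using HRP-coupled anti-M13 antibody.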 A general note: ELISA stands for enzyme-linked immunosorbent assay.
Target sequence in this assay (VH, as listed by the source, chain 1 of 2): as the sequence (VH, as listed by the source, chain 1 of 2) above
Target sequence in this assay (VL, as listed by the source, chain 2 of 2): as the sequence (VL, as listed by the source, chain 2 of 2) above
Description: Clonal phage were harvested as crude supernatants and screened via standard ELISAs. […] Prior to the addition of clonal phage, wells were incubated with blocking buffer and CD28 antigen or blocking buffer alone. Without washing or aspirating, clonal phage supernatants were then added to the wells and incubated for a short time. Wells were then washed followed by detection of bound phage using a horse radish conjugated anti-M13 antibody.
Regarding YCDGHLPEYREKCF [Phage-86], the “Anti-CD28 Fab signal” value was found to be 2.32.

Turning to YCEGHSSEYMLKCL [Phage-103], the “Anti-CD28 Fab signal” value turned out to be 2.3. As for YCEGHLPEYMQKCM [Phage-136], the “Anti-CD28 Fab signal” value was found to be 2.23. Turning to YCEGHSWANLGKCL [Phage-85], the “Anti-CD28 Fab signal” value was determined as 2.32. Take YCDGHSMEYMSKCL [Phage-139]: the “Anti-CD28 Fab signal” value was found to be 2.22. As to YCEGHSAQYMSKCL [Phage-105], the “Anti-CD28 Fab signal” value turned out to be 2.29. Take YCEGHAWEYMAKCL [Phage-129]: the “Anti-CD28 Fab signal” value worked out at 2.24. YCDGHLPQYMNKCL [Phage-134]: the “Anti-CD28 Fab signal” value turned out to be 2.23.

In the case of YCDGHSAEYMAKCL [Phage-137], the “Anti-CD28 Fab signal” value is 2.23. For the molecule YCDGHLPLYLAKCL [Phage-133], the “Anti-CD28 Fab signal” value is 2.23. Consider YCEGHSPEYMYKCL [Phage-138], for which the “Anti-CD28 Fab signal” value was found to be 2.23. YCDGHSQEYMAKCL [Phage-131]: the “Anti-CD28 Fab signal” value came out at 2.24. Regarding YCQGHLPEYMNKCL [Phage-130], the “Anti-CD28 Fab signal” value was 2.24.

Regarding YCQGHLPMYMEKCL [Phage-80], the “Anti-CD28 Fab signal” value was 2.34. In the case of YCEGHLPMYMDKCL [Phage-140], the “Anti-CD28 Fab signal” value amounted to 2.22.

Regarding YCQGHLPMYMAKCL [Phage-77], the “Anti-CD28 Fab signal” value stood at 2.34. Turning to YCQGHLPIYMEKCL [Phage-132], the “Anti-CD28 Fab signal” value was found to be 2.24.

Regarding YCDGHAPQYMRKCL [Phage-101], the “Anti-CD28 Fab signal” value is 2.3. On the same count and under the same terms, as for YCDGHSREYIAKCL [Phage-106], the figure is 2.29; as for YCDGHAKEYMWKCL [Phage-102], 2.3.
